Laboratory results from patent US20250250330A1.
“And” between values parts separate entries of the source, which are not always exact repeats. Identical values can stand only once.

Target: Recombinant human VEGF165 (Peprotech, Cat #100-20) (human) (UniProt P15692)
Assay: ELISA; rhVEGF165 coated, anti-human IgG Fc-HRP detection

Sequence of Recombinant human VEGF165 (Peprotech, Cat #100-20) (human) (P15692 other isoform, or with tags, fused parts or gaps limits assumed): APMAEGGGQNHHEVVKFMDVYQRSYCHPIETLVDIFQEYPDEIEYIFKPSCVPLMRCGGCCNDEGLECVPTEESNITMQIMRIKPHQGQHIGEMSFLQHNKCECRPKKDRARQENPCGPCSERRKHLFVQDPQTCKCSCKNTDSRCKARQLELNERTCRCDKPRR
Sequence of Aflibercept (Fc fusion) (chain): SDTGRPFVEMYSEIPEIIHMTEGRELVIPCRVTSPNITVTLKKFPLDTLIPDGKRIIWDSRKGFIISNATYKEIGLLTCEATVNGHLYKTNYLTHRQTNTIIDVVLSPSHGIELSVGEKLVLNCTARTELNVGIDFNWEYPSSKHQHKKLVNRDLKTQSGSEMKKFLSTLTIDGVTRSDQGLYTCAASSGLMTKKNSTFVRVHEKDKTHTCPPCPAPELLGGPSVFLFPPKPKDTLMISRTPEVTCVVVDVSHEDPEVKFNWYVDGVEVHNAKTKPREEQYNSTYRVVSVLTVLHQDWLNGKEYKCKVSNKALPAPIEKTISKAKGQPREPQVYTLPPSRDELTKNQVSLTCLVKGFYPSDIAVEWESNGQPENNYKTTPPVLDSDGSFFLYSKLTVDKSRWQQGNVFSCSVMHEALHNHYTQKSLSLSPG

EC50: 0.0513 nM and 0.074 nM and 0.0403 nM
Substance: Aflibercept (Fc fusion)
